The target in this assay is S Stabilizing Construct #21, CoV2_S2_1_pross mutant Spike (S) protein (SARS-CoV-2) (UniProt P0DTC2).

On to CR3022 antibody (RBD Specific Antibody), for which the fold affinity decrease worked out at 17 fold.

The values are drawn from patent US20230234992A1.
